Target: T1, caffeine dAb
T1 construct: Llama-derived
Experiment: peptide phage display panning on the anti-caffeine sdAb, method of Example 6

T1 sequence (VHH, as listed by the source): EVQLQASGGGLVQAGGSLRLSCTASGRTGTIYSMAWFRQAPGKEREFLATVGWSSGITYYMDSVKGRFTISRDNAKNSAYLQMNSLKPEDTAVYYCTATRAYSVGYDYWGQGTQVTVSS

| Binder | binding result |
| --- | --- |
| YPDVPLA (also called YPDVPLA) [SEQ ID NO 15] | binds |
| ACTYLNSAKC [SEQ ID NO 16] | binds |
| HTLNKPP (also called HTLNKPP) [SEQ ID NO 12] | binds |
| HDSPTAA (also called HDSPTAA) [SEQ ID NO 14] | binds |
| DLSIGNH (also called DLSIGNH) [SEQ ID NO 13] | binds |
